This assay addresses Flag-epitope tagged CncC (Drosophila melanogaster) (UniProt P20482).

Results on one substance are retold here after PMC4883770.

Fs(1)h-L, the long isoform of Fs(1)h (female sterile (1) homeotic), P13709 1-2038 (natural protein; acetylated lysines (shown with a generic anti-acetyl lysine antibody; residues not named)), sequence (P13709 whole entry, canonical isoform): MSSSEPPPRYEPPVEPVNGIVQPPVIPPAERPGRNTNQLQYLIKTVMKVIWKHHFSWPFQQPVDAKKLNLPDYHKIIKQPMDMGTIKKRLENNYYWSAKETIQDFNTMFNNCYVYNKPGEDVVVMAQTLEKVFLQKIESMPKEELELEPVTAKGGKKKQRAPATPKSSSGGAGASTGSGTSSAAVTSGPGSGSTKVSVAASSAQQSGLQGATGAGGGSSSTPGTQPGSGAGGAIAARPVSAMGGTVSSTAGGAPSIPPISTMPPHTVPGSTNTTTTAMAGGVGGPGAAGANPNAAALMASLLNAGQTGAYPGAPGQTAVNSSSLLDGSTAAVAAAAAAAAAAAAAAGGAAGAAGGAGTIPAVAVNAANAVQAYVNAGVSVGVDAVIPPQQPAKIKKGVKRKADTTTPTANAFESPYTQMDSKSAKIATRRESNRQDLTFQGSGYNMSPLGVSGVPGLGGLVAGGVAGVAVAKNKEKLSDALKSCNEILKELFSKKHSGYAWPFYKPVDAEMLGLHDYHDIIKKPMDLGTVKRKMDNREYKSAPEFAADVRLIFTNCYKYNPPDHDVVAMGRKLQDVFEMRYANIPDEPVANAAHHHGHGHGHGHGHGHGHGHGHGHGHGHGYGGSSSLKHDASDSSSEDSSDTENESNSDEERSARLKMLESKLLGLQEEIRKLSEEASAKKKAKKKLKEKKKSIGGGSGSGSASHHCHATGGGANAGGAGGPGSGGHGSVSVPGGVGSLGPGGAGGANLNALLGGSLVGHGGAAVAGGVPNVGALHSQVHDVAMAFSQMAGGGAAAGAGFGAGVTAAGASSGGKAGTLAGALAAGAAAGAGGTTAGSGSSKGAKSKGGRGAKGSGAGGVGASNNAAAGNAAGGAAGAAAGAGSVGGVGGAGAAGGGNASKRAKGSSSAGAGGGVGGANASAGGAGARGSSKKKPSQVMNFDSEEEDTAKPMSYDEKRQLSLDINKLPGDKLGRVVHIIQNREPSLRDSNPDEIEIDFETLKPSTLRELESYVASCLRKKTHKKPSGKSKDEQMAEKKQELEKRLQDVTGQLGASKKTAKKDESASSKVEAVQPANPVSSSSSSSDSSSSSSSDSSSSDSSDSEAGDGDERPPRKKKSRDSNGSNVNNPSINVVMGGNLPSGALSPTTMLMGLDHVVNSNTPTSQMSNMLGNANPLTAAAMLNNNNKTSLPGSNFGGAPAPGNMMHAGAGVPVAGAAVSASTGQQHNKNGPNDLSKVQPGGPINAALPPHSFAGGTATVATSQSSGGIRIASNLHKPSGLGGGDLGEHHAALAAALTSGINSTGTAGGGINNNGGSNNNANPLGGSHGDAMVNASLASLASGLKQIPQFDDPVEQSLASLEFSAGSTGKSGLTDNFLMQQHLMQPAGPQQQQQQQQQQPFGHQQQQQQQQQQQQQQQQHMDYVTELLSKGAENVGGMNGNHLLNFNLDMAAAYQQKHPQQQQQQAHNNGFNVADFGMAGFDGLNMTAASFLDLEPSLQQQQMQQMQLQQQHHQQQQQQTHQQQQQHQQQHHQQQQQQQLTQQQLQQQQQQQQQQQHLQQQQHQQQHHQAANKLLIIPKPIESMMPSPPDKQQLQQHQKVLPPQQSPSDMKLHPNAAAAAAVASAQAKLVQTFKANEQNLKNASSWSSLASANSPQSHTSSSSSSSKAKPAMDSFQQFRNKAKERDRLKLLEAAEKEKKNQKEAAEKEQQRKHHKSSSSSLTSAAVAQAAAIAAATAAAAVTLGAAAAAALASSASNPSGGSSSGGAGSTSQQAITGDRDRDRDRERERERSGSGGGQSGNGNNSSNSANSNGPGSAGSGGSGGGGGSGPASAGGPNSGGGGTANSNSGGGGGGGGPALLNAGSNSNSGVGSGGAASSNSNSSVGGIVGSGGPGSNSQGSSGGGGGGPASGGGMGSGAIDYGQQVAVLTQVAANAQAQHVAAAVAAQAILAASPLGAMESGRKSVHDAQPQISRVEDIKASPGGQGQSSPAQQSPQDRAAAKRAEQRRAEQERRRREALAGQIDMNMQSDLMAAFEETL
Flag-epitope tagged CncC (Drosophila melanogaster), sequence (P20482 whole entry): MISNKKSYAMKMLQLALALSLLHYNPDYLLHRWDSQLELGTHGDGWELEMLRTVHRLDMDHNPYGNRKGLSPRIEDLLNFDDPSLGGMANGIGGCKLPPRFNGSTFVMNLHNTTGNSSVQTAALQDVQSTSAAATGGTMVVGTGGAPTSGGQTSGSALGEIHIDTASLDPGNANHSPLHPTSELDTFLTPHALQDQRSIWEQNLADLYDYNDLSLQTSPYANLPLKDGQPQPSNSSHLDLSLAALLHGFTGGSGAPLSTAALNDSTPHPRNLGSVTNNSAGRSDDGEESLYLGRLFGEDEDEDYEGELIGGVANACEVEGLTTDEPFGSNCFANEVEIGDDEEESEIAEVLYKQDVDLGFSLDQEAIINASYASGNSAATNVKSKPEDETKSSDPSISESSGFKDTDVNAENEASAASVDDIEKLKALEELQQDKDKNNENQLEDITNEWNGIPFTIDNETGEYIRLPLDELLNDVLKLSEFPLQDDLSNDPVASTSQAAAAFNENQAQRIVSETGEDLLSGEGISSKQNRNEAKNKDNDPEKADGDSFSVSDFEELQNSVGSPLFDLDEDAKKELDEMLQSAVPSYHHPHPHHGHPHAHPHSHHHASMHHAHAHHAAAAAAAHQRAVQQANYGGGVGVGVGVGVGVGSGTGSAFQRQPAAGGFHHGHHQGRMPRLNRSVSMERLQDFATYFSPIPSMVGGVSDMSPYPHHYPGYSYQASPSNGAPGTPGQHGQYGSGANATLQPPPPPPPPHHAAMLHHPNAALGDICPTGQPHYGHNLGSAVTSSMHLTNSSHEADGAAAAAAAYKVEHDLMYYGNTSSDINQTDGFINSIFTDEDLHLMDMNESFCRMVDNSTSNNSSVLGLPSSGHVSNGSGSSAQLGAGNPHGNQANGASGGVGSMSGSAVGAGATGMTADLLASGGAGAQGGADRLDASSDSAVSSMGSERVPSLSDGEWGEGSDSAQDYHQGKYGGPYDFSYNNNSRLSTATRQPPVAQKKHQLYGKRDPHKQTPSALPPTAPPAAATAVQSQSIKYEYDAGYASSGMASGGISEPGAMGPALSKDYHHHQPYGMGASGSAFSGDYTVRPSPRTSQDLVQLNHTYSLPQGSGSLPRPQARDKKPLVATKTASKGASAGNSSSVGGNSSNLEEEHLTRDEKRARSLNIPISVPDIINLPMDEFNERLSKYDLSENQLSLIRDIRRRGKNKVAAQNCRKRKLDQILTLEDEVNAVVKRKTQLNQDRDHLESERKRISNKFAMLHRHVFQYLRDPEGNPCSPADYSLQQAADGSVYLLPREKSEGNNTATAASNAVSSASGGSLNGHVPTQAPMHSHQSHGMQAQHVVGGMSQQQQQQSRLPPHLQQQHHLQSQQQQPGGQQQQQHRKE

With “Fs(1)h-L, the long isoform of Fs(1)h (female sterile (1) homeotic), P13709 1-2038 (natural protein; acetylated lysines (shown with a generic anti-acetyl lysine antibody; residues not named))”, the ARE-fluc reporter activity in S2 cells treated with 1μM JQ1 for 24 hrs, fold change relative to controls came out at 6.5 fold.
